Data from paper PMC3843118, “ABC transporter functions as a pacemaker for sequestration of plant glucosides in leaf beetles” (eLife, 2013).

Substrate: OCc1ccccc1O[C@@H]1O[C@H](CO)[C@@H](O)[C@H](O)[C@H]1O
Assay: efflux of injected substrate from oocytes, HPLC-MS
Format: cell-based, Chrysomela populi
Conditions: Xenopus oocytes expressing CpMRP vs water-injected control, modified Barth's medium pH 7.4, room temperature, oocyte volume assumed 1 µl

B1: CpMRP (Chrysomela populi) (protein)
chain: MDNGYQLKYDNPRDKANFISKLFFGWMIGLVRKATRTGLEVGDLYKTREADKSKKLADLLEKNWTKELKRAKLKGTKPSLSRALLKTFTMEYMGWGLLFFIQFVVLRSILPLILSYLISLFQESDMDDMVDRTNAMYICSGILITITAISIFFLHHTNKGLTVVGMKARIAVSSLIYRKITRLNQTSLGETAAGQVVNILSNDVNRFDLVVLSLHCLWTLPIQVALLFYLLWRQVQISCLAGILSMMIICIPGQGYVGKLTGVLRFRVAKKTDTRVKLMNEVISGIQVIKMYAWEKSFEKLIKLMRADEIKDLTSTSYLRGLLLSCVVFIERLTMFLTVTCYVLLGNVITADKVFSMAQFFNILQYGIAILYPMAVSYGAETLISIKRLQDFLLLEERKTPSIETAEDNGIQLSDVSASWTADTRTLRDITLNLPPGTLCAVVGPVGAGKSSLLQLLLGELPLSSGTMSLAGTISYSSQEPWLFQSSVRKNVLFGEPYQSSWYKQVVKVCALEKDFDQFPQRDQTIVGERGVSLSGGQRARINLARAIYRKTDVYLMDDPLSAVDTHVGRHLFDECIYRHLRGKTRILATHQLQYLKNADVIVVMNEGRIEAQGSFEELSDSELDFTKLLVSADETKGESKKLSLVEEPKIDYIKRLSVRSIMSTQSEFIEMMEYGDTEELGVDGNAHPFKDYCKAPRNVCLLVVVIISLILAQAVCSGADYWSSFWTRQEEIRHSTRARPVSDSSEVIQLVPLGNQTISLDGNKYTNENRDFSFDTFFDQVFLDNRIYKLLKTNYSMGVYGFLIIAAIVFTIGRSVLFCKLTMQASTNLHSDMFHTLLKAPMRFFDTNPSGRVLNRFSKDMGAVDEILPRTLLESIQIMLVMCGILVNIAVANPYMLVAMVVMGVCFYFLSKWYVTTASNVKHLEGFTKSPVFSHVNSTLNGITTIRAFRAEEVLCEEFDDQQDVHTSSWYLTLSCIASFGLWMDIVCLLFLACVTFSFVLMHSTSSVNGSLVGLAISQCLILTGMLQHGMRQTSEVINQLTSVERIRQYTKIDTEGPFETPIEKKPLKGWPNRGRLEFRNLVLRYVAEDDPVLRNLTFTVLPGEKVGIVGRTGAGKSSLISALFRLAPTSGSILIDGVDSKVLGLTDLRMKISIIPQEPVLFSATMRYNLDPFDEFDDRSLWDALEQVELKDAVESLDIMVTEGGNNFSLGQRQLICLARAILRNNNILVLDEATANVDQRTDSFIQKTIRRNFEDCTVLTIAHRLNTIMDSDKVLVMHFGEMVEYDHPHILLQLPEGHFHKMVLETGPAIYAQLKDVAEKAYHKNSRL
notes: cRNA expressed in Xenopus laevis oocytes
- Km: 5.8 mM
